According to the nanobody polyreactivity screen of Harvey et al. (2022):

Assay: yeast display, Sf9 membrane polyspecificity reagent, FACS + sequencing; frameworks hold sequencing errors
In short: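 In a synthetic yeast display library (Saccharomyces cerevisiae BJ5465), nanobody expression was induced with galactose for 36–48 hours. FACS gates were set low and high (top ~1%) using anti-HA fluorescence for expression and streptavidin fluorescence for binding of the Sf9 membrane reagent. Each polyreactivity label is drawn from the gate of origin.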

Row | Sequence | polyreactivity (PSR sort gate)
1 | QVQLVESGGGLVQAGGSLRLSCAASGLTFAYYDMGWYRQAPGKERELVAAITSGGTTNYADSVKGRFTISRDNAKNTVYLQMNSLKPEDTAVYYCYADYYSRIVGVRIYDYWGQGTQVTVSS | low polyreactivity
2 | QVQLVESGGGLVQAGGSLRLSCAASGFTFYTYAMRLYRQAPGKERELVAAISKSGGSTYYADSVKGRFTISRDNAKNTVYLQMNSLKPEDTAVYYCAAVVVYFDEYDYWGQGTQVTVSS | low polyreactivity
3 | QVQFVESGGGVVQAGGSLRLSCAASGNIPYWYAMGWSRPAPAKERELVAAISSRGNTYYADSVKGRFTISRDNAKNNVYLQMNSLKQEDTAVYYCAAYAGSFYYWGQGTQVTVSS | high polyreactivity
4 | QVQLVESGGGLVQAGGGHRLSCAASGRTFTYNAMGWYRQAPGKERELVAAITSGGSTNYADSVKGRYTISRDNAKNTVYLQMNSLKPEDTAVYYCAADGDDYTTTEFDYWGQGTQVTVSS | low polyreactivity
5 | QVQLVESGGGLVQAGGSLRLSCAASGSTFQRYAMGWYRQAPGKERELVAAISDGGSTKYADYVKGRFTISRDNAKNTVYLQMNRLKPEDTAVYYCAANYLSRYDYWGQGTQVTVSS | low polyreactivity
6 | QVQLVESGGGLVQAGGSLRLSCAASGKTFVTYAMGWYRQAPGKERELVATISSSGGSTYYADSVKGRFTISRDNAKNTVYLQMNSLKPEDTAVYYCAKQAWAYALYTNFYSGDYGYWGQGTQVTVSS | low polyreactivity
7 | QVQIVESGGGLVQAGGSLRLSCAASGLIFDANAMGWYRQAPGKERELVAAISNGDSTYYADSVKGRFTISRDNAKNTVYLQMNSLKPEDTAVYYCNARIIYRKWLLRSGTFNYWGQGTQVTVSS | low polyreactivity
8 | QVQLVESGGGLVQAGGSLRLSCAPSGITFYKYAMGWYRQAPGKERELVATISRRGGTTYYADSVKGRFTISRDNAKNTVYLQMNSLKPEDTAVYYCNADSRTYRYYWSYGYWGQGTQVTVSS | high polyreactivity
9 | QVQLVESGGGLVQAGGSLRLSCAASGSTFGYYAMGWYRQAPGKERELVAAIRSSGGGTYYADSVKGRFTISRDNAKNTVYLQMNSLKPEDTAVYYCATDAPILVNAEYDEWLEYDYWGQGTQVTVSS | low polyreactivity
10 | QVQLVESGGGLVQAGGSLRLSCAASGSIFADYAMGWYRQAPGKERELVSAITGSGGRTYYADSVKGRFTISRDNAKNTLYLQMNSLKPEDTAVYYCAADGLSNVRQMDYWGQGTQVTVSS | low polyreactivity
11 | QVQLVESGGGLVQAGGSLRLSCAASGRIFQSNAMGWYRQAPGKERELVAAISYSGGSTYYADSVKGRFTISRDNAKNTVYLQMNSLKPEDTAVYYCAADIFSPAFDYWGQGTQVTVSS | low polyreactivity
12 | QVQLVESGGGLVQAGGSLRLSCAASGSTFYVYAMGWYRQAPGKERELVAAITTGGSTYYADSVKGRFTISRDNAKNTVYLQMNSLKPEDTAVYYCAADDPDPYDVPSYDYWGHGTQVTVSS | low polyreactivity
13 | QVQLVESGGGLVQAGGSLRLSCPASGSIYGLYSMGWYRQAPGKERELVAVITYSVGTTYYADSVKGRFTISRDNAKNTVYLQMNSLKPEDTAVYYCAADLYWYYPWSAYYGEYDYWGQGTQVTVSS | low polyreactivity
14 | QVQLVETGGGLVQAGGSLRLSCAASVIISSVYAMGWYRQAPGNERELVAAISGSGGSTYYADSVKGRFTISRDNAKNTVYLQMISLKPEDTAVYYCAKGYQYQGNSYGYWGQGTQVTVSS | low polyreactivity
15 | QVQLVESGGGLVQAGGSLRLSCAASGSIFRGYTMGWYRQAPGKERELVAAISWSGGSTYYADSVKGRFTISRDNAKNTVYLQMNSLKPEDTAVYYCAAGDYYHRIFLWYDYWGQGTQVTVSS | low polyreactivity
16 | QVQLGESGGGLVQAGGSLRLSCAASGTIYGYVMGWYRQAPGKERVLVAAISSSGGSTYYADSVKGRFTISRDNAKNTVYLQMNSLKPEDTAVYYCAKGLTYARRYGYWGQRTQVTVSS | high polyreactivity
17 | QVQLVESGGGLVQAGGSLRLSCAASGSTFAYNAMGWYRQAPGKERELVATITSGGSTSYADSVKGRFTISRDNAKNTVYLQMNSLKPEDTAVYYCAARKVTKSTYNYWGQGTQVTVSS | low polyreactivity
18 | QVQLQESGGGLVQAGGSLRLSCAGSGYIFPRIYMGWYRQAPGKEREFDAGISYDAITNYADSVKGRFTISLDNAKNTVYLQMNSLKPEDTAVYYCAVSYYGTPLFTYWGQGTQVTVSS | high polyreactivity
19 | QVQLVESGGGLVQAGGSLRLSCAASGFIFEYYAMGWYRQAPGKERELVAAINGGGGNTYYADSVKGRFTISRDNAKNTVYLQMNSLKPEDTAVYYCNAKRRKYRYDYWGQGTEVTVSS | high polyreactivity
20 | QVQLVESGGGLVQAGGSLRLSCAASGSTFQRYAMGWYRQAPGKERELVAAISSRGGSTYYADSVKGRFTISRDNAKNTVYLQMNSLKPEDTAVYYCAALGHLRYDYWGQGTQVTVSS | high polyreactivity
21 | QVQLVESGGGLVQAGGSLRLSCAASGLILPYYAMGWYRQAPGKERELVAAISRTGGRTSYADSVKGRFTISRDNAKNTVYLQMNSLKPEDTAVYYCAAVGQSGGRRYDYWGQGTQVTVSS | high polyreactivity
22 | QVQLVESGGGLVQAGGSLRLSCAASGSIFVIYAMGWYRQAPGKERELVATISGGGGTNYADSVKGRFTISRDNAKNTVYLQMNSLNPEDTAVYYCAARSKVHRWRKRYDYWGQGTQVTVSS | high polyreactivity

Row | Sequence | polyreactivity (PSR sort gate)
23 | QVQLVESGGGLVQAGGSLRLSCAASGLTLGSYAMGWYRQAPGKERELVAAISRRSGRTYYADSVKGRFTISRDNAKNTVYLQMNSLKPEDTAVYYCAAEIPYYVDTPGDDYWGQGTQVTVSS | low polyreactivity
24 | QVQLVESGGGLVQAGGSLRLSCAASGRIFHHNAMVSYRQAPGKEMELVATITWSGGRTYYADSVKGRFTISRDNAKNTVYLQMNSLKPEDTAVYYCAASSYSYYGYRSYQSTYYYWGQGTQVTVSS | low polyreactivity
25 | QVQLVESGGGLVQAGGSLRLSCAASGSIFKVYAMGWYRQAPGKERELVAAITGGGRTYYADSVKGRFTISRDNAKNTVYLQMNSLKPEDTAVYYCNAVRGGYHVRYDYWGQGTQVTVSS | high polyreactivity
26 | QVQLVESGGGLVQAGGSLRLSCAASGLIFRKNAMGWDRQAPGKERELVAAMSYNGASTYYADSVKGRFTISRDNAKNTVYLQMNSLKPEDTAVYYCAAYAGYSDQARYYYWGQGTQVTVSS | high polyreactivity
27 | QVQLVESGGGLVQAGGSLRFSCAASGSTFTAYVMGWYRQAPGKERELVAAISRSGGRTYYADSVKGRFTISRDNAKKTVYLQMNSLKPEDTAVYYCAARSGPLAYDYWGQGTQVTVSS | high polyreactivity
28 | QVQLVESGGGLVQAGGSLRLSCAASGLTFYKNAMGWYSQAPGKERELVAAITQSGGSTYYADSVKGRFTISRDNAKNTVYLQMNSLKPEDTAVYYCAAATYLNGNNYYWGQGTQVTVSS | high polyreactivity
29 | QVQLVESGGGLVQAGGSLRLSCAASGNTIYKYTMGWSRQAPGKERELVAVISSSSGSTYYADSVKGRFTISRDNAKNTVYLQMNSLKPEDTAVYYCNKRGWWDLRHDYWGQGTQVTVSS | low polyreactivity
30 | QFQLVDSVGGLDQAGGSLRLSSDASGLTLIGNAMGWYRQAPVKERELVASITIGGTTYADSVKGRFTISRDNAKNTVYLQMNSLKPEDTEVYYCAADFSSFSIDTGYDYWGQGTQVTVSS | low polyreactivity
31 | QDQLEESGGGLVQAGASLRLSCAAYGSIFSGYAMGRYRQATGKERELVAAITWRAASTYYADSVKGRFTISRDNAKTTVYLQMNSLKPEDTEVYYCAKEGWPKPAFYYWGLGTQVTVSS | low polyreactivity
32 | QVQLVESGGGLVQAGGSLRLSCAASGITFYYYAMGWYRQAPGKERELVAAISDNGSRTYYADSVKGRFTISRDNAKNTVYFQMNSLKPEDTAVYYCAADWFYTNVRYRYAYGGYYWGQGTQVTVSS | high polyreactivity
33 | QVQLVASGGGLVQAGGSLRLSCAASGYTLFRNAMGWYRQAPGKERELVAAISRSGARTYYADSVKGRFTISRDNAKNTVYLQMNSLLPEDTAVYYCAAVIKWTKDDYWGQGTQVTVSS | high polyreactivity
34 | QVQLVESGGGLVQAGGSLRLSCAASGRIFGINAMGWYRQAPGKERELVAAINWSGGSTYYADSVKGRFTISRDNAKNTVYLQMNSLKPEDTAVYYCAAQKYKRVGYWGQGTQVTVSS | high polyreactivity
35 | QVQLVESGGGLVQAGGSLRLSCAASGLTFIEYAKGWYRQAPGKERELVAAISSGGRTYYADSVKGRFTISRDNAKNTVYLQMNSLKPEDTAVYYCNARGYRRWYNYWGQGTQVTVSS | high polyreactivity
36 | QVQLVESGGGLVQAGGSLRLSCAASGSIFRNYAMGWYRQAPGKERELVARISYSGGRTHYADSVKGRFTISRDNAKNTVYLQMNSLKPEDTAVYYCAAPFHFTHFQGNYYWGQGTQVTVSS | low polyreactivity
37 | QVQLVESGGGLVQAGGSLRLSCAASGSTFNANTMGWYRQAPGKEREFVAAISWTGASTYYADSVKGRFTISRDNAKNTVYLQMNSLKPEDTAVYYCNADYTVADGPYRDGYDYWGQGTQVTVSS | low polyreactivity
38 | QVQLVESGGGLVQAGGSLRLSCAASGRIFQYYAMGWYRQAPGKERELVATITSTGSTYYADSVKGRFTISRDNAKNTVYLQMNSLKPEDTAVYYCNADPWGIYETFGDHDYWGQGTQVTVSS | low polyreactivity
39 | QVQLVESGGVLVQAGGSLRLSCAASGSIFSAYVMGWYRQAPGKERELVAAINRGGNTYYADSVKGRFTISRDNAKNTVYLQMNSLKPEDTAVYYCNAQWYYLRYRYDYWGQGTQVTVSS | high polyreactivity
40 | QVQLVESGGGLVQAGGSLRLSCAASGRTFRVYARGWYRQAPGKERELVATITSSGGSTYYADSVKGRFTISRDNAKNTVYLQMNSLKPEDTAVYYCNVSVYYNYDSSYYYWGQGTQVTVSS | low polyreactivity
41 | QVQLLESGGGLVQAGGSLRLSCAASGFIICYNGMGWYRQAPGKERELVAGITYSDGSTYYADSVKGRFTISRDNAKITVYLQMNSLKPEDTAVYYCAVDVFYYWAEDYDYWGQGTQVTVSS | low polyreactivity
42 | QVQLVESGGGLVQAGGSLRLSCAASGRISYLYTMGWYRQAPGKERELVAAIRWRDGSTYYADSVKGRFTISRDNAKNTVYLQMNSLKPEDTAVYYCAKRFAGGEYGYYWGQGTQVTVSS | low polyreactivity
43 | QVQLVESGGGLVQAGGSLRLSCAASGSTFHIYAMGWYRQAPGKERELVAAINRSGGSTRYADSVKGRFTISRDNAKNTVYLQMNSLKPEDTAVYYCATKRSTGYYWGQGTQVTVSS | high polyreactivity
